Test results as given in patent publication US20080181886A1, “Polypeptides That Bind Baff And/Or April” (Genentech, Inc., priority 2004, published 2008).

B1: TACI_d1d2: residues 21-116 of the TACI extracellular domain (both CRDs) with a C-terminal His-tag (protein, UniProt O14836 21-116, looked up, fragment)
chain: FPQGLWTGVAMRSCPEEQYWDPLLGTCMSCKTICNHQSQRTCAAFCRSLSCRKEQGKFYDHLLRDCISCASICGQHPKQCAYFCENKLRSPVNLPP
modifications: extracellular domain C-terminal His-tag
notes: residues 21-116 of the TACI extracellular domain (both CRDs) with a C-terminal His-tag
B2: shortTACI: TACI splice variant: first 20 residues, one tryptophan in place of the 47 residues encoding CRD1, then the rest of the protein (protein)
chain: MSGLGRSRRGGRSRVDQEERWSLSCRKEQGKFYDHLLRDCISCASICGQHPKQCAYFCENKLRSPVNLPPELRRQRSGEVENNSDNSGRYQGLEHRGSEASPALPGLKLSADQVALVYSTLGLCLCAVLCCFLVAVACFLKKRGDPCSCQPRSRPRQSPAKSSQDHAMEAGSPVSTSPEPVETCSFCFPECRAPTQESAVTPGTPDPTCAGRWGCHTRTTVLQPCPHIPDSGLGIVCVPAQEGGPGA

How the values were obtained:
[1] = biological target: T1, APRIL (Mus musculus, UniProt Q9D777); assay: Competitive surface plasmon resonance, APRIL binding to immobilized BCMA-Fc; set-up: species or system murine; conditions: competition with immobilized BCMA-Fc
T1 construct: made in house
T1 sequence (Q9D777 105-241): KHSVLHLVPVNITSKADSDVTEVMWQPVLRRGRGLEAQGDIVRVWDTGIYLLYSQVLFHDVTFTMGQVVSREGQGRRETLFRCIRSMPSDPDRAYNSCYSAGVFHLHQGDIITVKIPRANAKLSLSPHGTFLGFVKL
Source text: (§1) Surface plasmon resonance (SPR) measurements on a BIAcore 3000 instrument (Pharmacia Biosensor) were used to measure binding affinities of receptors to immobilized APRIL and BAFF by competition binding. […] In these experiments, receptors in solution competed for binding of ligand in solution at room temperature with immobilized BCMA-Fc. BCMA-Fc was coupled to flow cell 2 of a CM4 sensor chip, using the amine coupling protocol supplied by the manufacturer, at a high density (4500 resonance units) so that the initial rate of binding was linearly dependent on the concentration of free ligand. In all experiments flow cell 1 was ethanolamine-blocked and used as the reference cell. Washing with 10 mM HCl regenerated flow cells between sample injections. In order to determine the ligand concentration necessary to obtain the optimal for competition experiments, a preliminary binding study was performed for each ligand where two-fold dilutions of the ligand ranging from 400 nM to 6.25 nM were injected over the BCMA-Fc surface. […] The IC50 values were calculated using a four-parameter curve fit (y=((m1−m4)/(1+(m0/m3)̂m2))+m4) of the initial binding rates for the receptor/control (Vi/Vo) as a function of receptor concentration.

[2] = biological target: T2, BAFF (Homo sapiens, UniProt Q9Y275); assay: Competitive surface plasmon resonance, BAFF binding to immobilized BCMA-Fc; conditions: competition with immobilized BCMA-Fc
T2 construct: made in house
T2 sequence (Q9Y275 82-285 limits assumed): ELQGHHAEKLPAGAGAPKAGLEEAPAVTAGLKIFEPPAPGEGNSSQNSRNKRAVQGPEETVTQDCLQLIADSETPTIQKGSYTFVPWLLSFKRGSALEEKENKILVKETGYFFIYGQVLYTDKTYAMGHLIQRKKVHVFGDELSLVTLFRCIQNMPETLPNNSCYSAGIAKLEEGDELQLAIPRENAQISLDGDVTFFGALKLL
Source text: as §1

[3] = biological target: T1, APRIL; assay: Competitive ELISA, APRIL; type: binding, murine; conditions: data not shown
[4] = biological target: T2, BAFF; assay: Competitive ELISA, BAFF; type: binding; conditions: data not shown
[5] = system: NF-κB; assay: NF-κB ELAM-luciferase reporter assay in co-transfected 293T cells; type: cell-based, Human; conditions: 293T cells co-transfected with ligand and receptor; 20 hr after transfection
Experimental: Human 293T cells were co-transfected with the indicated amounts of expression plasmids along with 250 ng of ELAM-luciferase reporter gene plasmid and 25 ng pRL-TK. 20 hr after transfection, reporter gene activity was determined with the dual-luciferase reporter assay system (Promega).

Molecule	affinity for APRIL, comparison in words [1]	affinity for BAFF, comparison in words [2]	binding to APRIL, in words [3]	binding to BAFF, in words [4]	NF-κB activation by APRIL or BAFF [5]
B1	did not confer additional affinity	did not confer additional affinity	no improvement in binding	no improvement in binding	–
B2	–	–	–	–	capable of mediating NF-κB activation
